These results are taken from patent publication US20160074469A1.

In this assay the target is human MC1r (melanocortin receptor type 1) (human) (UniProt Q01726). Put plainly: cell-based or functional assay.
UniProt Q01726, sequence (Q01726 whole entry): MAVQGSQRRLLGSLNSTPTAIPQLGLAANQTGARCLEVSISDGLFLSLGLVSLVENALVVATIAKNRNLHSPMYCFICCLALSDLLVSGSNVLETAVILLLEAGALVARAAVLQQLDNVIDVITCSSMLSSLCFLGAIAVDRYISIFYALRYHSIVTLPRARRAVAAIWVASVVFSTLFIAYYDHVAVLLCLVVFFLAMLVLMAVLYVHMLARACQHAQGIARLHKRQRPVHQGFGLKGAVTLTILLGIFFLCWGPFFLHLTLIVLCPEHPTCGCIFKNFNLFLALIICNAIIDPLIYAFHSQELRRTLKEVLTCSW

Regarding Ac-KKKKKKSYSMEHFRWGKPV-NH2 [Ac(Lys)6-αMSH (Ac(Lys)6-Ser-Tyr-Ser-Met-Glu-His-Phe-Arg-Trp-Gly-Lys-Pro-Val-NH2)], the EC50, cAMP production is 2.12 nM and the Emax (max efficacy expressed as percent of αMSH), cAMP production was 72 % of αMSH.
